Positions count from the first letter of the chain named. Values belong to the binder of their own block, whether it stands above or below them.
Columns and labels:
Human CD19-his protein [1] = target: T1, Human CD19-his protein (human, UniProt P15391 20-291); experiment: SPR Biacore, method of example 7.1, human CD19-His
T1 construct: bought protein; also called recombinant human CD19-His; CD19 full-length protein; not shown: His tag
T1 sequence (looked up): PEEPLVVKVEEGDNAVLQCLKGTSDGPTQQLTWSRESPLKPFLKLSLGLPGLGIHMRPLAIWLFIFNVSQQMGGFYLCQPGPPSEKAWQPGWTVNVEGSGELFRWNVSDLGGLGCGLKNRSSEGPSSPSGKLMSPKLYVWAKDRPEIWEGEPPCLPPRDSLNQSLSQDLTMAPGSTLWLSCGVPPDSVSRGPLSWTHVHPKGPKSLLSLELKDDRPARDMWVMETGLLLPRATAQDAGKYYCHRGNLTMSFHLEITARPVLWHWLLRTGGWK
Protocol: A sample buffer and a running buffer were HBS-EP+ (10 mM HEPES, 150 mM NaCl, 3 mM EDTA and 0.05% surfactant P20) (GE Healthcare; BR-1006-69). The flow-through cell was set to 25° C. The sample block was set to 16° C. Both were pretreated with the running buffer. In each cycle, an antibody to be detected was first captured with a Protein A chip, and then a single concentration of CD19 antigen protein was injected. The binding and dissociation processes of the antibody and the antigen protein were recorded, and finally Glycine pH 1.5 (GE Healthcare; BR-1003-54) was used to complete chip regeneration. The binding was measured by injecting different concentrations of recombinant human CD19-His proteins in a solution for 240 s with a flow rate of 30 μl/min. The concentration started from 200 nM (see the detailed results for the actual concentration in the test) and was diluted at 1:1, making a total of 5 concentrations. The dissociation phase was monitored for up to 600 s and was triggered by switching from sample solution to running buffer. The surface was regenerated by washing with a 10 mM glycine solution (pH 1.5) for 30 s at a flow rate of 30 μl/min. Bulk refractive index difference was corrected by subtracting the response obtained from the goat anti-human Fc surface. Blank injection was also subtracted (=double reference). For calculation of apparent KD and other kinetic parameters, Langmuir 1:1 model was used.
SPR (biacore) detection and data analysis were performed according to the method in example 7.1.

[2] = target: T2, human CD19 exon1-3-His tag protein (human, UniProt P15391 20-186, limits assumed); experiment: ELISA, coated human CD19 exon 1-3-His
T2 construct: membrane-distal part of the extracellular region, made in HEK293E cells; not shown: His tag
T2 sequence (looked up): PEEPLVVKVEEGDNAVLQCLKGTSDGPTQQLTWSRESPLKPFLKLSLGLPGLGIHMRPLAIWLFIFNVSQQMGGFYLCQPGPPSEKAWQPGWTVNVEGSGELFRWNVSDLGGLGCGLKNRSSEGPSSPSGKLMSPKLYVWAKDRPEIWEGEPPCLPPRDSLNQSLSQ

human CD19 on Raji cells = target: T3, human CD19 on Raji cells (human, UniProt P15391 20-556); experiment: FACS on Raji cells
T3 construct: whole, on cells
T3 sequence (looked up): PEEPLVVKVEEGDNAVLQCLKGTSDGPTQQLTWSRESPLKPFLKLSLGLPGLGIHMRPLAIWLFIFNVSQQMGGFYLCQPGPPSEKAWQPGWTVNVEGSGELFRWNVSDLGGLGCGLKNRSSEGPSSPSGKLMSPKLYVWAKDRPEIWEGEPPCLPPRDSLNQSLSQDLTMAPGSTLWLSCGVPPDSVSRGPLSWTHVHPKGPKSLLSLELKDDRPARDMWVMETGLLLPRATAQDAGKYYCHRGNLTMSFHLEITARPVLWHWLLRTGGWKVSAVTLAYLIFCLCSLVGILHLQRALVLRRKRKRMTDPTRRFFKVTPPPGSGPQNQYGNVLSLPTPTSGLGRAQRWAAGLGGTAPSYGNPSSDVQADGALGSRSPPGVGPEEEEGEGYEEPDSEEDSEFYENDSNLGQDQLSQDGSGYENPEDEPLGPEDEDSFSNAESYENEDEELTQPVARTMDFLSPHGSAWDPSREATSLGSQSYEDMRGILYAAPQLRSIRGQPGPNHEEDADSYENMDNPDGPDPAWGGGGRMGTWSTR
Protocol: (§1) After the digestion was terminated, the cells were washed 2 times with a PBS buffer; and for suspension cell Raji, the supernatant of the medium was discarded by directly centrifugation, and the cell pellet was washed 2 times with PBS. After counting the cells in the previous step, the cell pellet was resuspended with [PBS+2% (w/w) BSA] blocking solution to 2×10⁶ cells/ml, and added to a 96-well FACS reaction plate at 50 μl/well, and then the sample to be tested was added at 50 μl/well, and incubated on ice for 2 h. The obtained mixture was centrifuged and washed 3 times with a PBS buffer. […] The obtained mixture was centrifuged and washed 5 times with a PBS buffer, and FACS (FACS Canto™, purchased from BD Company) was used for detection and result analysis. Data analysis was performed by software (FlowJo) to obtain the mean fluorescence intensity (MFI) of the cells. And then software (GraphPad Prism8) was used for analysis, data fitting, and EC50 value calculation. […] The same method was used to detect the binding of the chimeric antibodies to endogenous CD19-negative cells, MoLT4 cells (purchased from ATCC, CRL-1582), and CHO-K1 cells.

[3] = target: T4, human CD19 on CHO-K1-human CD19 cells (human, UniProt P15391 20-556); experiment: FACS on CHO-K1-human CD19 cells
T4 construct: whole, on cells; also called CHO-K1-human CD19-2C8
T4 sequence (looked up): T3 sequence (looked up)
Protocol: as §1

Human CD19-his protein [4] = target: T1, Human CD19-his protein; experiment: ELISA, coated human CD19-His
Protocol: Human CD19-his protein (purchased from ACROBiosystems, catalog number: CD9-H52H2) was diluted with PBS to a final concentration of 4 μg/mL, and then added to a 96-well ELISA plate at 100 μl/well. The plate was sealed with a plastic film and incubated overnight at 4° C., the plate was washed 2 times with PBS the next day, and then a blocking solution [PBS+2% (w/w) BSA] was added for blocking at room temperature for 2 h. The blocking solution was poured off, and 100 nM gradiently diluted CD19 chimeric antibody or control antibody was added at 50 μl/well. After incubation at 37° C. for 2 h, the plate was washed 3 times with PBS. […] TMB substrate was added at 50 μl/well, and incubated at room temperature for 10 min, and then a stop solution (1.0 N HCl) was added at 50 μl/well. The OD450 nm values were read by an ELISA microplate reader (Multimode Plate Reader, EnSight, purchased from Perkin Elmer).

Human CD19-his protein [5] = target: T1, Human CD19-his protein; experiment: ELISA on coated human CD19-His

Kd (Human CD19-his protein [1]): 1460 pM | koff (Human CD19-his protein [1]): 0.000195 s⁻¹ | kon (Human CD19-his protein [1]): 134000 M⁻¹ s⁻¹ | OD450 at 0.0001 nM [2]: 0.05 OD450 | OD450 at 0.001 nM [2]: 0.05 OD450 | OD450 at 0.01 nM [2]: 0.05 OD450 | OD450 at 0.10 nM [2]: 0.05 OD450 | OD450 at 1.00 nM [2]: 0.05 OD450 | OD450 at 10 nM [2]: 0.05 OD450 | OD450 at 100 nM [2]: 0.09 OD450 | EC50 (human CD19 on Raji cells): 410 pM | Maximum mean fluorescence intensity (human CD19 on Raji cells): 30100 MFI | EC50 [3]: 1140 pM | Maximum mean fluorescence intensity [3]: 52200 MFI | OD450 at 0.0001 nM (Human CD19-his protein [4]): 0.1 OD450 | OD450 at 0.001 nM (Human CD19-his protein [4]): 0.13 OD450 | OD450 at 0.01 nM (Human CD19-his protein [4]): 0.37 OD450 | OD450 at 0.10 nM (Human CD19-his protein [4]): 1.51 OD450 | OD450 at 1.00 nM (Human CD19-his protein [4]): 2.42 OD450 | OD450 at 10 nM (Human CD19-his protein [4]): 2.41 OD450 | OD450 at 100 nM (Human CD19-his protein [4]): 2.55 OD450 | EC50 (read off the curve) (Human CD19-his protein [5]): ~50 pM
B1: F3.121.4-L2H2 (antibody, mouse IgG1, kappa, V domains shown)
VH: EVQLVQSGAEVKKPGASVKVSCKASGYTFTNYWMHWVRQAPGQGLEWMGEIDPSDNYANYNQEFQGRVTITVDKSASTAYMELSSLRSEDTAVYYCARHDGYFGALDYWGQGTTVTVSS
VL: EIVLTQSPDFQSVTPKEKVTITCSASSSISSNYLHWYQQKPDQSPKLLIKRTSNLASGVPSRFSGSGSGTDFTLTINSLEAEDAATYYCQQASSIPRMFTFGQGTKLEIKR
notes: humanized antibody of F3.121.4, VL2+VH2, murine IgG1 constant regions

Kd (Human CD19-his protein [1]): 1430 pM | koff (Human CD19-his protein [1]): 0.000186 s⁻¹ | kon (Human CD19-his protein [1]): 130000 M⁻¹ s⁻¹ | OD450 at 0.0001 nM [2]: 0.05 OD450 | OD450 at 0.001 nM [2]: 0.05 OD450 | OD450 at 0.01 nM [2]: 0.05 OD450 | OD450 at 0.10 nM [2]: 0.05 OD450 | OD450 at 1.00 nM [2]: 0.05 OD450 | OD450 at 10 nM [2]: 0.05 OD450 | OD450 at 100 nM [2]: 0.09 OD450 | EC50 (human CD19 on Raji cells): 380 pM | Maximum mean fluorescence intensity (human CD19 on Raji cells): 29100 MFI | EC50 [3]: 1080 pM | Maximum mean fluorescence intensity [3]: 53200 MFI | OD450 at 0.0001 nM (Human CD19-his protein [4]): 0.1 OD450 | OD450 at 0.001 nM (Human CD19-his protein [4]): 0.13 OD450 | OD450 at 0.01 nM (Human CD19-his protein [4]): 0.38 OD450 | OD450 at 0.10 nM (Human CD19-his protein [4]): 1.52 OD450 | OD450 at 1.00 nM (Human CD19-his protein [4]): 2.42 OD450 | OD450 at 10 nM (Human CD19-his protein [4]): 2.45 OD450 | OD450 at 100 nM (Human CD19-his protein [4]): 2.57 OD450 | EC50 (read off the curve) (Human CD19-his protein [5]): ~50 pM
B2: F3.121.4-L2H1 (antibody, mouse IgG1, kappa, V domains shown)
VH: B1 VH with G44R
VL: B1 VL
notes: humanized antibody of F3.121.4, VL2+VH1, murine IgG1 constant regions

Source: patent publication US20250042994A1 (HAINAN SIMCERE ZAIMING PHARMACEUTICAL, published 2025)
